Measured values from US20230192897A1 (NUMAB THERAPEUTICS, published 2023).

T1: mouse CD137-Fc chimeric protein (mouse, UniProt P20334 24-187, limits assumed)
T1 sequence (looked up): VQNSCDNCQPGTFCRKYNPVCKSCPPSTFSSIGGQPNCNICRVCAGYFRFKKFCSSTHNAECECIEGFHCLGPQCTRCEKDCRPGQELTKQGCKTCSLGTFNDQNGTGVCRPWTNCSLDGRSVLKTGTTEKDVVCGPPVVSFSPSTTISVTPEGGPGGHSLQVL

B1: PRO1125 (bispecific antibody)
chain: DIQMTQSPSSLSASVGDRVTITCQASQSINDYLAWYQQKPGKSPKLLIYKASTLASGVPSRFSGSGSGTDFTLTISSLQPEDFATYYCQQGYIITDIDNVFGTGTKVTVLGGGGGSQVQLQESGPGLVKPSETLSLTCKVSGFSFSNSYWICWIRQPPGKGLEWIGCTFVGSSDSTYYANWAKGRVTISVDSSKNQFSLKLSSVTAADTAVYYCARHPSDAVYGYANNLWGQGTLVTVSSGGGGSGGGGSGGGGSGGGGSIQMTQSPSSLSASVGDRVTITCQASQSINNVLAWYQQKPGKAPKLLIYRASTLASGVPSRFSGSGSGTDFTLTISSLQPEDFATYYCQSSYGNYGDFGTGTKVTVLGGGGGSQVQLQESGPGLVKPSETLSLTCKVSGFSFSSGYDMCWVRQPPGKGLEWIACVVAGSVDITYYASWAKGRVTISVDSSKNQFSLKLSSVTAADTAVYFCARKDAYSDAFNLWGQGTLVTVSS
notes: scDb; also called 38-02-A04 sc01 scDb-i/33-03-G02 sc02 IF scDb-o
B2: PRO1430 (other)
chain: DIQMTQSPSSLSASVGDRVTITCQASQSIGTYLAWYQQKPGKAPKLLIYRAFILASGVPSRFSGSGSGTDFTLTISSLQPEDFATYYCQSNFYSDSTTIGPNAFGTGTKVTVLGGGGGSEVQLVESGGGLVQPGGSLRLSCAASGFSFSNSYWICWVRQAPGKCLEWIGCTFVGSSDSTYYANWAKGRFTISRDNSKNTVYLQMNSLRAEDTAVYYCARHPSDAVYGYANNLWGQGTLVTVSSGGGGSGGGGSGGGGSGGGGSIQMTQSPSSLSASVGDRVTITCQASQSINNVLAWYQQKPGKAPKLLIYRASTLASGVPSRFSGSGSGTDFTLTISSLQPEDFATYYCQSSYGNYGDFGCGTKVTVLGGGGGSQVQLQESGPGLVKPSETLSLTCKVSGFSFNSDYWIYWIRQPPGKGLEWIGSIYGGSSGNTQYASWAQGRVTISVDSSKNQFSLKLSSVTAADTAVYYCARGYVDYGGATDLWGQGTLVTVSSGGGGSGGGGSIQMTQSPSSLSASVGDRVTITCQSSESVYSNNQLSWYQQKPGQPPKLLIYDASDLASGVPSRFSGSGSGTDFTLTISSLQPEDFATYYCAGGFSSSSDTAFGGGTKLTVLGGGGGSGGGGSGGGGSGGGGSEVQLVESGGGLVQPGGSLRLSCAASGFSLSSNAMGWVRQAPGKGLEYIGIISVGGFTYYASWAKGRFTISRDNSKNTVYLQMNSLRAEDTATYFCARDRHGGDSSGAFYLWGQGTLVTVSS
notes: trispecific scDb-scFv; also called 38-02-A04 sc13 scDb-i/37-20-B03 sc01 scDb-o/19-01-H04 sc03 scFv
B3: PRO1479 (other)
chain: DIQMTQSPASLSASVGDRVTITCQASQSIGTYLAWYQQKPGKPPKLLIYRAFILASGVPSRFSGSGSGTDFTLTISSLQPEDFATYYCQSNFYSDSTTIGPNAFGTGTKVTVLGGGGGSEVQLVESGGGLVQPGGSLRLSCAASGFSFSNSYWICWVRQAPGKCLEWIGCTFVGSSDSTYYANWAKGRFTISRDNSKNTVYLQMNSLRAEDTAVYYCARHPSDAVYGYANNLWGQGTLVTVSSGGGGSGGGGSGGGGSGGGGSIQMTQSPSSLSASVGDRVTITCQASQSINNVLAWYQQKPGKAPKLLIYRASTLASGVPSRFSGSGSGTDFTLTISSLQPEDFATYYCQSSYGNYGDFGCGTKVTVLGGGGGSEVQLVESGGGLVQPGGSLRLSCAASGFSFNSDYWIYWVRQAPGKGLEWIASIYGGSSGNTQYASWAQGRFTISRDNSKNTVYLQMNSLRAEDTAVYFCARGYVDYGGATDLWGQGTLVTVSSGGGGSGGGGSIQMTQSPSSLSASVGDRVTITCQSSESVYSNNQLSWYQQKPGQPPKLLIYDASDLASGVPSRFSGSGSGTDFTLTISSLQPEDFATYYCAGGFSSSSDTAFGGGTKLTVLGGGGGSGGGGSGGGGSGGGGSEVQLVESGGGLVQPGGSLRLSCAASGFSLSSNAMGWVRQAPGKGLEYIGIISVGGFTYYASWAKGRFTISRDNSKNTVYLQMNSLRAEDTATYFCARDRHGGDSSGAFYLWGQGTLVTVSS
notes: trispecific scDb-scFv; also called 38-02-A04 sc13 scDb-i/37-20-B03 sc09.1 scDb-o/19-01-H04 sc03 scFv
B4: PRO1134 (bispecific antibody)
chain: DIQMTQSPSSLSASVGDAVTITCQASQSINDYLAWYQQKPGKSPKLLIYKASTLASGVPSRFSGSGSGTDFTLTISSLQPEDFATYYCQQGYIITDIDNVFGTGTKVTVLGGGGGSQVQLQESGPGLVKPSETLSLTCKVSGFSFSNSYWICWIRQPPGKGLEWIGCTFVGSSDSTYYANWAKGRVTISVDSSKNQFSLKLSSVTAADTAVYYCARHPSDAVYGYANNLWGQGTLVTVSSGGGGSGGGGSGGGGSGGGGSIQMTQSPSSLSASVGDRVTITCQASQSINNVLAWYQQKPGKAPKLLIYRASTLASGVPSRFSGSGSGTDFTLTISSLQPEDFATYYCQSSYGNYGDFGTGTKVTVLGGGGGSEVQLVESGGGLVQPGGSLRLSCAASGFSFSSGYDMCWVRQAPGKGLEWVGCVVAGSVDITYYASWAKGRFTISRDNSKNTVYLQMNSLRAEDTATYYCARKDAYSDAFNLWGPGTLVTVSS
notes: scDb; also called 38-02-A04 sc01 scDb-i/33-03-G02 sc07 GL VH3 scDb-o

Columns and labels:
[1] = biological target: T2, Fc tagged human PDL1 (human, UniProt Q9NZQ7 19-239); test: SPR
T2 construct: Bought (Sino Biological, cat. 10084-H02H); captured on the SPR chip; also called PDL1-Fc chimeric protein
Method in brief: (§1)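 Kinetics were fitted with a one-to-one Langmuir model to give apparent ka, kd and KD. Binders at 0.12-90 nM (three-fold series) flowed 3 min, with 10 min dissociation and 3 M MgCl₂ regeneration, on a Biacore T200.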

[2] = biological target: T1, mouse CD137-Fc chimeric protein; test: SPR
Method in brief: as §1

[3] = biological target: T3, Fc tagged human CD137 (human, UniProt Q07011 24-186); test: SPR
T3 construct: also called CD137-Fc chimeric protein
Method in brief: as §1

[4] = biological target: human PDL1 on cells (human, UniProt Q9NZQ7 19-290); test: cell-based or functional assay
[5] = biological target: T4, CD137 on Jurkat NFkB reporter cells (human, UniProt Q07011 24-255); test: cell-based or functional assay
[6] = biological target: T4, CD137 on Jurkat NFkB reporter cells; test: cell-based or functional assay; remark: listed apart in the source
[7] = biological target: T5, biotinylated human PDL1 (human, UniProt Q9NZQ7 19-238, limits assumed, biotinylated); test: competition ELISA B7.1/PDL1
T5 construct: also called biotinylated PDL1
Procedure: Plates were blocked for 1 hour at room temperature by adding 300 μl of PBS with 1% BSA and 0.2% tween (dilution buffer) to each well. […] The mixtures were pre-incubated for 1 hour at room temperature under gentle agitation on a rotating mixer (21 rpm) and added to the microplates after 3 wash cycles with 450 μl wash buffer per well. Plates were incubated for 1.5 hours at room temperature under gentle agitation, then 10 ng/ml streptavidin-polyHRP40 was added to each microplate well after three washes with 450 μl of wash buffer per well. After 1 h incubation at RT, plates were washed three times with 450 μl wash buffer and TMB substrate solution was added. The enzymatic reaction was stopped after 6 minutes by addition of 1 M HCl and absorbance was measured at 450 nm using 690 nm as a reference wavelength. For calculation of IC₅₀ values, a four-parameter logistic (4PL) curve fit was performed in Graph Pad Prism using reference subtracted values.

[8] = biological target: T5, biotinylated human PDL1; test: competition ELISA PD-1/PDL1
Procedure: Plates were blocked for 1 hour at room temperature by adding 300 μl of PBS with i%BSA and 0.2% tween (dilution buffer) to each well. Inhibitors were serially diluted in 3-fold steps to final concentrations ranging from 300 to 0.005 ng/ml in dilution buffer containing 1 ng/ml biotinylated human PDL1. The mixtures were pre-incubated for 1 hour at room temperature under gentle agitation on a rotating mixer (21 rpm) and added to the microplates after 3 wash cycles with 450 μl wash buffer per well. Plates were incubated for 1.5 hours at room temperature under gentle agitation, then 10 ng/ml streptavidin-polyHRP40 was added to each microplate well after three washes with 450 μl of wash buffer per well. After 1 h incubation at RT, plates were washed three times with 450 μl wash buffer and TMB substrate solution was added. The enzymatic reaction was stopped after 6 minutes by addition of 1 M HCl and absorbance was measured at 450 nm using 690 nm as a reference wavelength. For calculation of IC₅₀ values, a four-parameter logistic (4PL) curve fit was performed in Graph Pad Prism using reference subtracted values.

[9] = biological target: T6, human serum albumin (human, UniProt P02768 25-609); test: SPR, SA coupled to chip, pH 5.5
T6 construct: Coupled directly to the CM5 chip; also called HSA; human SA
Procedure: Affinity of molecules to serum albumin (SA) of the different species was determined by SPR measurements using a Biacore T200 device (GE Healthcare). SA was directly coupled to a CM5 sensor chip (GE Healthcare) using amine coupling chemistry. […] The assay was run in a 1× PBS-Tween buffer at pH 5.5.

| Binder | Kd [1] | koff [1] | kon [1] | Kd [2] | Kd [3] | kon [3] | koff [3] | IC50 (ng/ml), NF-AT potency assay, +HSA [4] | rel. IC50 (avelumab/test), +HSA [4] | IC50 (ng/ml) (EC50 in Table 16C), NFkB reporter, HCC827 + IFNg, 24 h, +HSA [5] | rel. IC50 (PRO1186/test), 24 h [5] | Area under the curve (calculated using PRO885 normalized data), first line (6 h by the order of the upper part) [6] | Area under the curve (calculated using PRO885 normalized data), second line (24 h by the order of the upper part) [6] | EC50 [ng/ml], NF-kB reporter, HCC827 + IFNg, +HSA, 6 h [6] | IC10/EC90 ratio, first line (6 h by the order of the upper part) [6] | IC10/EC90 ratio, second line (24 h by the order of the upper part) [6] | Maximum NF-kB activation (rel. to PRO1186) [%], first line (6 h by the order of the upper part) [6] | Maximum NF-kB activation (rel. to PRO1186) [%], second line (24 h by the order of the upper part) [6] | rel. Area under the curve (AUCsample/AUCPRO1186), first line (6 h by the order of the upper part) [6] | rel. Area under the curve (AUCsample/AUCPRO1186), second line (24 h by the order of the upper part) [6] | further results |
| --- | --- | --- | --- | --- | --- | --- | --- | --- | --- | --- | --- | --- | --- | --- | --- | --- | --- | --- | --- | --- | --- |
| B1 | 0.067 nM | 0.00011 s⁻¹ | 1.7e+06 M⁻¹ s⁻¹ | 510 nM | 3.7 nM | 200000 M⁻¹ s⁻¹ | – | – | – | – | – | – | – | – | – | – | – | – | – | – | koff [2]: 0.27 s⁻¹ |
| B2 | 0.0045 nM | – | – | – | 1.5 nM | 460000 M⁻¹ s⁻¹ | 0.00071 s⁻¹ | 16.2 ng/mL | 1.45 fold | 4.42 ng/mL | 1.51 fold | 196 | 180 | 9.8 ng/mL | 72.4 | 1240 | 110% | 98.6% | 1.03 fold | 0.87 fold | rel. EC50 (EC50, PRO1186/EC50, sample), NF-kB reporter, 6 h [6]: 1.31 fold; rel. EC50 (EC50, PRO1186/EC50, sample), NF-kB reporter, 24 h [6]: 1.51 fold; rel. IC10/EC90 (ratio of sample/ratio of PRO1186), first line (6 h by the order of the upper part) [6]: 0.22 fold; rel. IC10/EC90 (ratio of sample/ratio of PRO1186), second line (24 h by the order of the upper part) [6]: 3.94 fold; IC50 [7]: 2.42 ng/mL; rel. IC50 (IC50 avelumab/IC50 test) [7]: 1.15 fold; IC50 [8]: 1.92 ng/mL; rel. IC50 (IC50 avelumab/IC50 test) [8]: 0.73 fold; Kd [9]: 1 nM; koff [9]: 0.0003 s⁻¹; kon [9]: 290000 M⁻¹ s⁻¹ |
| B3 | 0.0092 nM | – | 4.2e+06 M⁻¹ s⁻¹ | – | 1.7 nM | 330000 M⁻¹ s⁻¹ | 0.00054 s⁻¹ | 50.4 ng/mL | 1.04 fold | 7.61 ng/mL | 0.87 fold | 191 | 207 | 7.38 ng/mL | 81.9 | 523 | 108% | 119% | 1.11 fold | 1.37 fold | rel. EC50 (EC50, PRO1186/EC50, sample), NF-kB reporter, 6 h [6]: 1.74 fold; rel. EC50 (EC50, PRO1186/EC50, sample), NF-kB reporter, 24 h [6]: 0.87 fold; rel. IC10/EC90 (ratio of sample/ratio of PRO1186), first line (6 h by the order of the upper part) [6]: 0.25 fold; rel. IC10/EC90 (ratio of sample/ratio of PRO1186), second line (24 h by the order of the upper part) [6]: 1.66 fold; IC50 [7]: 10.7 ng/mL; rel. IC50 (IC50 avelumab/IC50 test) [7]: 1.38 fold; IC50 [8]: 2.65 ng/mL; rel. IC50 (IC50 avelumab/IC50 test) [8]: 0.86 fold; Kd [9]: 0.976 nM |
| B4 | – | 7.6e-05 s⁻¹ | 2.8e+06 M⁻¹ s⁻¹ | 420 nM | 3.4 nM | 250000 M⁻¹ s⁻¹ | 0.00084 s⁻¹ | – | – | – | – | – | – | – | – | – | – | – | – | – | – |
